The nanobody polyreactivity screen of Harvey et al. (2022)

Assay: yeast display, Sf9 membrane polyspecificity reagent, FACS + sequencing; frameworks hold sequencing errors
Outline: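 After 36–48 hours of galactose induction, yeast (Saccharomyces cerevisiae BJ5465) displaying a synthetic nanobody library were stained at 4 °C for 1 hour with 10% biotinylated, detergent-solubilized Sf9 membrane reagent. Streptavidin microbeads enriched the stained cells before FACS sorting into low and high (top ~1%) gates on anti-HA and streptavidin fluorescence. Each clone's polyreactivity label reflects its gate of origin.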

Row | Sequence | polyreactivity (PSR sort gate)
1 | QVQLVESGGGLVQAGGSLRLSCAASGFTFYYYAMGWYRQAPGKERELVATIRWSGGSTYYADSVKGRFTISRDNAKNTVYLQMNSLKPEDTAVYYCNATPPQYVKYPSYKYDYWGQGTQVTVSS | low polyreactivity
2 | QVQLVESGGGLVQAGGSLRLSCAASGSIFAAYAMGWYRQAPGKERELVAAISDRGGSTYYADSVKGRFTISRDNAKNTVYLQMNSLKPEDTAVYYCATSVYDVRGGPFYYWGQGTQVTVSS | high polyreactivity
3 | QVQLVESGGVLVQAGGSLRLSCAASVGIFDYYTMGWYRQAPGKERELVAAISASGGITYYADSVKGRFTISRDNANNTVYLQMNSMKPEDTAVYYCAAGVRNDYWWYYYWGQGTQVTVSS | high polyreactivity
4 | QVQLVESGGGLVQAGGSLRLSCAASGSTFPPYAMGWYRQAPGKERELVAAIDWSDGTTYYADSVKGRFTISRDNAKNTVYLQMNSLKPEDTAVSYCSASLSQSEFDYWGQGTQVTVSS | low polyreactivity
5 | QVQLVESGGGLVQAGGSLRLSCAASGRIFPPNAMGWYRQAPGKERELVAGITPSGDTTYYADSVKGRFTISRDNAKNTVYIQMNSLKPEDTAVYYCAKDEVYADDRSALFDYWGQGTQVTVSS | low polyreactivity
6 | QVQLVESGGGLVQAGGSLRLSCAASGRIFGYYTMGWYRQAPGKERELVAGITRRGGRTYYADSVKGRFTISRDNAKNTVYLQMNSLKPEDTAVYYCAVRSGVNFYYWGQGTQVTVSS | high polyreactivity
7 | QVHLVESGGGLVQAGGSLRLSCAASGSIYLITAMGWYRQAPGKERELVAAISSRGTSTYYADSVKGRFTISRDNAKNTVYFQMNSLKAEDTAVYYCAARAIRANGYDYWGQCTQVTVSS | high polyreactivity
8 | QVQLVESGGGLVQAGGSLRLSCAASGSIFAYNAMGWYRQAPGKERELVAAISVGGGRTYYADSVKGRFTISRDNAKNTVYLQMNSLKPEDTAVYYCAASSTAKRYYWGQGTQVTVSS | high polyreactivity
9 | QVQLVESGGGLVQAGGSLRLSCAASGSTFLQYAMGWYRQPPGKERELVAAIRFSTGTTYYADSVKGRFTISRDNAKNTVYLQMNSLKPEDTAVYYCNAVGTYRPWFHTYGYWGQGTQVTVSS | high polyreactivity
10 | QVQHVESGGGLVQPGGSHRLSCAASGSTFQIYAMRWYRQAPGKVRELVAAITSSSSTNYADSVKGRFTISRDNAKNTDYLQMNSLKPEDPAVYYCAADVSRRCNWYDYWGQGTQVTVSS | low polyreactivity
11 | QVQLVESGGGIVQAGGSLRLSCAASGMGWYRQAPGKERELVADITSRGGSTYYADSVKGRFTISRDNAKITVYLQMNSLKPEDTAVSYCAARKRVVQFDYWGQGTQVTVSS | low polyreactivity
12 | QVQLVESGGRLVQAGGSLRLSCASSGFTFRYYAMGWYRQAPGKERELVASITGNGGSTYYADSVKGRFTISRDNAKNTVFLHMNSLKPEDTAVYYCNARVRGYYEYNYWGQGTQVTVSS | high polyreactivity
13 | QVQLVESGGGLVQAGGSLRLSCAASGGYGMGWYRQAPGKERELVAAISYSGGSTYYADSVKGRFTISRDNAKNTVYLQMNSLKPEDTAVYYCNVLRGSLNGWWPGYDYWGQGTQVTVSS | low polyreactivity
14 | QVQLVESGGGLVQAGGSLRLSCAASGSIFVDYAMGWYRQAPGKERELVAAISSGGSTNYADSVKGRFTISRDNAKNTVYLQMNSLKPEDTAVYYCAADGSYGYDYWGQGTQVTVSS | low polyreactivity
15 | QVQLVESGGGLVQAGGSLRLSCAASGRTFDFYAMGWYRQAPGKERELVAAISSRGGSTYYADSVKGRFTISRDNAKNTVYLQMNSLKAEDTAVYYCAKDLGYRGRYNYWGQGTQVTVSS | low polyreactivity
16 | QVQLVESGGGLVQAGGSLRLSCAASGSILDSNAMGWYRQAPGKERELVAAITSGGSTYYADSVKGRFTISRDNAKNTVYLQMNSLKPEDTAVYFCAAAFLGYGAVQPSYEGGYWGQGTQVTVSS | low polyreactivity
17 | QVRLVESGGGLVQAGGSLRLSCAASGRIFASYAMGWNRQAPGKETELVAAISKSGGRTYYADSVKGGFTISRDNAKNTVYLQMNSLKPEDTAVYYCAAYFWTRSGTPNYDYWGQGTQVTVSS | high polyreactivity
18 | QVHLVESGGGLVQAGGSLRLSCAASGRTFPYNAMGWYRQAPGKERELVATIDSSGTRTFYADSVKGRFTISRDNANNTVYLQMNSLKPEDTAVYYCAKGWYAYKLYGYDYWGQGTQVTVSS | low polyreactivity
19 | QVQLVESGGGLVQAGGSLRLSCAASGLIFPRYGMGGYRPAPGKERELVAAITRGGSTYYADSVKGRFTISRDNAKNTVYLQMNSLKPEDTAVYYCIAELPVHWSWYDYWGHGTQVTVSS | low polyreactivity
20 | QVQLVESGGGLVQARGSLRLSCAPSGSIFDHNAMGWYRQAPGKESEFVAAISSSGGSTNYADSVKGRFTISRDIAKNTVYLQMNSLKPEDTAVYYCAAYPDRYVELGYWGQGTQVTVSS | low polyreactivity
21 | QVQLVESGGGLVQAGGSLRLSCAASGFAFGVYAMGWDRQAAGKERELVAAITRSGGSTYYADSVKGRFTISRDNAKNTVYLQMNSLKPEDTAVYYCAARARDHYGYWGQGTQVTVSS | high polyreactivity
22 | QVQLVESGGGLVQAGGSLRLICAASGRSFTSNAMGWYRQAAGKEWELVAAINFRGDSTYYADSVKGRFTISRDNAKNTVYLQMNSLKREDTAVYYCAAVGGRSSYRLDYWGQGTQVTVSS | low polyreactivity

Row | Sequence | polyreactivity (PSR sort gate)
23 | QEQLQESGGGQVQAGGSLLLSCAASGNIIRYYYMGWYRQAPGKERELVAAITYGTSTNYADSVKGRFTISRDNEKNTVYLQMNSLKPEDSAVYYFAVVVNYGDPLVNWGQGTQVTVSS | high polyreactivity
24 | QVQLVESGGGLVQAGGSLRLSCAASGRTFNKYAMGWYRQAPGKERELVAAIRDGSGGRTNYADSVKGRFTISRDNAKNTVYLQMNSLKPEDTAVYYCNADDSKYPYYTDDYWGQGTQVTVSS | low polyreactivity
25 | QVQLQESGGGLVQAGGSLRLSCAASGNISVTGFMGWYRQAPGKERELVASIGIGGTTYYADSVKGRFSISRDNAKNTVYLKMNSLKQEDTSVYYCAARYLYYAYSYWGQGTQVTVSS | low polyreactivity
26 | QVQLVESRGGLVQAGGSLRLSFAASGSIFTPYTMGWDRPAPGKERELVAAITGSAGSTYYADSVKGRFTISRDNAKNTVYLQMNSLKPEDTAVYYCAAAVWGVYQWYYYWGQGTQVTVSS | high polyreactivity
27 | QVQLVESGGGLVQAGGSLRLSCAASGITSVDYAMRWYRQAPGKERELVAAITWSDSSTYYADSVKGRFTISRDNAKNTVYLQMNSLKPEDTAVYYCAAEYYFWGWEFDYWGQGTQVTVSS | high polyreactivity
28 | QVQLVESGGGLVQAGGSLLLSCAASGFTFRYYAMGWYRQAPGTERELVAAISSGGNTRYADSVKGRFTISRDNAKITVYLQLNSLKPEDTAVYYCARRPGAPRESYDYWGQGTQVTVSS | high polyreactivity
29 | QVQLVESGGGLVQAGGSLRLSCAASGSIFILNAMGWYRQAPGKERELGAAISWSGGRTNYADSVKGRFTISRDNAKNPVYLHMNSLKPEDTAVYYCAARVTPYRGFYYWGQGTQVTVSS | high polyreactivity
30 | QVQLVESGGGLVQAGGSLRLSCAASGSIFDHTNAMGWYRQAPGKERELVAAITSGSSTNYADSVKGRFTISRDNAKNTVYLQMNSLKPEDTAVYYCNADRFHSGIFDYWGQGTQVTVSS | low polyreactivity
31 | QVQLVESGGGLVQAGGSLRLSCAASGSIFSWYAMGWYRQAPGKERELVAAISSRGGSTYYADSVKGRFTISRDTAKNTVYLQMYSLKPEDTAVYYCNTTYGYSTYWASGKYDYWGQGTQVTVSS | low polyreactivity
32 | LVQVVESGGGLVQAGGSLRLSCAASGIFSRYARGWYRQAPGKERELVAAISNGGRTYYADSVKGRFTSARDNAKNTVYLQMNSLNPEDTAVYYCNKVRSPWYESWGQGTQVTVSS | high polyreactivity
33 | QVQLVESGGGLVQAGVSLRISSAASGLIFGSNAMGWYRQAPGIERELVAAISWRGGSTYYADSVKGRFTISRDNAKKTVSCQMNSLKPEDTAVYYCAKYPYYYYWFNYCGQGTQVTVSS | high polyreactivity
34 | QVQLVESGGGLVQAGGSLRLSCAASGSTFQTYAMGSYRPAPGKERELVAAISKTGASTYYADSVKGRFTISRDNAKNTVNLQMNSLKPEDTAVYYCAAGRYTSYYPRYYYWGQGTQVTVSS | high polyreactivity
35 | QVQLEESGGGLVQAGGSLRLSCAASGRTFQYYTMGWYRQAPGKEREFVAAIRDSGGSTYYADSVKGRFTISRDNAKNTVYLQMNSLKPEDTAVYYCNKVPNGPSNYDYWGQGTQVTVSS | high polyreactivity
36 | QFQLVESGGGLVQEGGSLRISCAASGSIFNEYAMGWYRQAPGKERELVAAISTSGDITYYADSVKGRFTISLDTAKNTVYLQMNSLKPEDTAVYYCAAKYSLLRQYNRLDYWGQGTQVTVSS | low polyreactivity
37 | QVQLVESGGGLVQAGGSLRLSCAASGRIFDANAMGWYRQAPGKERELVAAITSSGGRTYYADSVKGRFTISRDNAKNTVYLQMNSLKPEDTAVYYCARAGRSWDTLYKYYLEHDYWGQGTQVTVSS | low polyreactivity
38 | QVQLEESGGGLVQAGGSLRLSCAASALTIEYNAKGSYRQAPAKERELVATISWSDSTRYADSVKGRLTISRDNAKSTVYLQMNSLKPEYTAVYDSNADVYWAWWEFDYWGQGTQVTVSS | low polyreactivity
39 | QVQLVESGGGLVQAGGSLRLSCAASGFTFPWYAMGWYRQAPGKERELVAALTGSGGSTDYADSVKGRFTISRDNAKNTVYLQMNSLKPEDTAVYYCNAGKTIDYRDGVGYDHWGQGTQVTVSS | low polyreactivity
40 | QVQLVESGGGLVQAGGSLRLSCAASGSIFSLNAMGWYRQAPGKERELVAAINSGGTSTYYADSVKGRFTMSRDNAKNTVYLHMKSLKPEDTAVYYCAKRQRDYSSVFDVDYWGQGTQVTVSS | low polyreactivity
41 | QVQLGESGGGLVQAGGSLRLICAASGSIFDVNAMGWYRQAPGKERELVAAISDSGGSTYYADSVKGRFTISRDNAKNTVYLQMNSLKPEDTAVYYCNADWSWYNYDDFDYWGQGTQVTVSS | low polyreactivity
42 | QVQLVESGGRLVQAGGSLRLSCAASGRIFNRYAMGWYRQAPGKERELVAAITRGGSTYYADSVKGRFTMSRDNAKITVYLQMNSLKPEDSAVYYCAGRVGYPYYYWGQGTQVTVSS | high polyreactivity
43 | QVQLVESGGGLVQAGGSLRLSCAASGITFRWYAMGWYRPAPGKEWELVAAMNSRGTSTYYADSVKGRFTISRDNAKNTVYLQMNSLKPEDTSVYYCAATYLYIHGGFRPQYDYWGQGTQVTVSS | high polyreactivity
